Key:
Experiment in all cases: FRET or BRET
[1] = target: calpain-2 Cys105Ala-CCPGCC-H6 (rat) labelled with LumioGreen, with the truncated small subunit (rat) (UniProt Q07009)
[2] = target: calpain-2 Cys105Ala-eGFP-H6 (rat) with the truncated small subunit (rat) (UniProt Q07009)
[3] = target: labeled calpastatin fragments (competition by non-fluorigenic calpains)

increase in EmAcc/EmDon on addition of calcium [1] [%] | increase in EmAcc/EmDon on addition of calcium [2] [%] | maximal calcium-dependent increase in EmAcc/EmDon (average) [2] | FRET efficiency [2] [%] | Substance | further results
330 | 99.9 | – | – | cL-ABC-D1 Cys241Ser Ser142Cys labelled with AlexaFluor546 (from UniProt P20810 114-270) (domain or fragment) | –
330 | – | – | – | cL-ABC-D1 Cys241Ser Ser142Cys labelled with TMR (from UniProt P20810 114-270) (domain or fragment) | –
330 | 99.9 | 0.45 | – | cL-ABC-D1 Cys241Ser Ser148Cys labelled with AlexaFluor546 (from UniProt P20810 114-270) (domain or fragment) | –
330 | – | – | – | cL-ABC-D1 Cys241Ser Ser148Cys labelled with TMR (from UniProt P20810 114-270) (domain or fragment) | –
330 | 99.9 | 0.45 | 32.7 | cL-ABC-D1 Cys241Ser Ser151Cys labelled with AlexaFluor546 (from UniProt P20810 114-270) (domain or fragment) | –
330 | – | – | – | cL-ABC-D1 Cys241Ser Ser151Cys labelled with TMR (from UniProt P20810 114-270) (domain or fragment) | –
– | 34.1 | – | 13.2 | cL-ABC-D1 Cys241Ser Ser223Cys labelled with AlexaFluor546 (from UniProt P20810 114-270) (domain or fragment) | –
– | 99.9 | 0.45 | 33.5 | cL-ABC-D1-Cys241Ser-Ala246Cys Alexafluor546 (from UniProt P20810 114-270) (domain or fragment) | absolute increase in EmAcc/EmDon on addition of calcium (2.5 mM) [2]: 0.456; increase in EmAcc/EmDon on addition of calcium (2.5 mM), single assay [2]: 70%
– | 66.7 | – | – | cL-AtB-D1 Ser142Cys labelled with AlexaFluor546 (from UniProt P20810 114-202) (domain or fragment) | –
– | 66.7 | 0.169 | – | cL-AtB-D1 Ser148Cys labelled with AlexaFluor546 (from UniProt P20810 114-202) (domain or fragment) | –
– | 66.7 | 0.169 | 25.3 | cL-AtB-D1-Ser151Cys-Alexafluor546 (from UniProt P20810 114-202) (domain or fragment) | absolute increase in EmAcc/EmDon on addition of calcium (2.5 mM) [2]: 0.22; increase in EmAcc/EmDon on addition of calcium (2.5 mM), single assay [2]: 64.4%
– | – | – | – | calpain-2 Cys105Ala (rat), non-fluorigenic, with the truncated small subunit (from UniProt Q07009 20-700) (complex) | inhibition of FRET at ~0.35 μM competitor [3]: 50%
– | – | – | – | porcine erythrocyte calpain 1 (from UniProt P35750 1-714; P04574 1-266) (complex) | inhibition of FRET at ~0.35 μM competitor [3]: 50%

Reference: paper PMC2646846
